Experimental data reported in US20110207796.

Target: human alpha-synuclein (wild-type, recombinant)

B1: IKBKB (protein)
chain: MSWSPSLTTQTCGAWEMKERLGTGGFGNVIRWHNQETGEQIAIKQCRQELSPRNRERWCLEIQIMRRLTHPNVVAARDVPEGMQNLAPNDLPLLAMEYCQGGDLRKYLNQFENCCGLREGAILTLLSDIASALRYLHENRIIHRDLKPENIVLQQGEQRLIHKIIDLGYAKELDQGSLCTSFVGTLQYLAPELLEQQKYTVTVDYWSFGTLAFECITGFRPFLPNWQPVQWHSKVRQKSEVDIVVSEDLNGTVKFSSSLPYPNNLNSVLAERLEKWLQLMLMWHPRQRGTDPTYGPNGCFKALDDILNLKLVHILNMVTGTIHTYPVTEDESLQSLKARIQQDTGIPEEDQELLQEAGLALIPDKPATQCISDGKLNEGHTLDMDLVFLFDNSKITYETQISPRPQPESVSCILQEPKRNLAFFQLRKVWGQVWHSIQTLKEDCNRLQQGQRAAMMNLLRNNSCLSKMKNSMASMSQQLKAKLDFFKTSIQIDLEKYSEQTEFGITSDKLLLAWREMEQAVELCGRENEVKLLVERMMALQTDIVDLQRSPMGRKQGGTLDDLEEQARELYRRLREKPRDQRTEGDSQEMVRLLLQAIQSFEKKVRVIYTQLSKTVVCKQKALELLPKVEEVVSLMNEDEKTVVRLQEKRQKELWNLLKIACSKVRGPVSGSPDSMNASRLSQPGQLMSQPSTASNSLPEPAKKSEELVAEAHNLCTLLENAIQDTVREQDQSFTALDWSWLQTEEEEHSCLEQAS
- in vitro kinase reaction, phosphorylation of alpha-synuclein: shown to be incapable of directly phosphorylating alpha-synuclein
